Data: PMC3229559

Target: PKC-α (UniProt P20444)
Test: biotin-peptide pull-down from heart extract
Conditions: reference: non-phosphorylated peptide; sites S179

syndecan-4 cytoplasmic part, 171-198 (from UniProt O35988) pS179 peptide
binding against the reference: weaker
